According to article PMC10484666:

Target: IMP1 KH34 Y396F (Gallus gallus) (UniProt O42254)
Experiment: BLI
Settings: N6-methyladenosine at position 6; BLI: 10 mM Na2HPO4 pH 6.5, 50 mM NaCl, 1 mM TCEP, 2 mg/ml BSA, 0.005% Tween-20, 25 C; NMR: 80 uM protein, 37 C, NMR buffer not printed (protein in 10 mM …)

Sequence of IMP1 KH34 Y396F (Gallus gallus) (O42254 387-573 Y396F): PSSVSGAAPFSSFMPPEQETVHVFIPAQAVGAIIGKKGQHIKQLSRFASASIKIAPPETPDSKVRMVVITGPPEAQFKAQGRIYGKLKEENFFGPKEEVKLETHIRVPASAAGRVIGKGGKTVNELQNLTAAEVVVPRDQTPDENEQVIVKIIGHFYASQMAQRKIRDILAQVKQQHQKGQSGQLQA

ACTB zipcode RNA, m6A
Kd: 3.7 nM
